Like-named read-outs stand apart in the source and are kept apart here.
B1: hz72C1-1.2 (antibody, human IgG4 S228P, kappa)
heavy: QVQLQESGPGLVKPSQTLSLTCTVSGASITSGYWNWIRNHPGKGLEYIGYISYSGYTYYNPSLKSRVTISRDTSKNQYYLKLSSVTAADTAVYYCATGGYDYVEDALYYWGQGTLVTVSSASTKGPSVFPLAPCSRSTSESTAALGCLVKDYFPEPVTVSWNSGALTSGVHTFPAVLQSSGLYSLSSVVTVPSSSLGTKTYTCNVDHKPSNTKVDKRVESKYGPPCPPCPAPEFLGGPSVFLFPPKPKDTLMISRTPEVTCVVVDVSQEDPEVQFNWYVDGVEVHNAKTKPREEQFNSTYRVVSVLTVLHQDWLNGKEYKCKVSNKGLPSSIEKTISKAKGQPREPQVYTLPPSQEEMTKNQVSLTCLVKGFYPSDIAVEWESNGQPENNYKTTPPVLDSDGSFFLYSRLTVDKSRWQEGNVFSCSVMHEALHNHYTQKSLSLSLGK
light: DIQMTQSPSSLSASVGDRVTITCRASSNVRYMYWYQQKPGKAPKLWIYLTSNLASGVPSRFSGSGSGTSYTLTISSLQPEDFATYYCQQFTTSPYTFGQGTKLEIKRTVAAPSVFIFPPSDEQLKSGTASVVCLLNNFYPREAKVQWKVDNALQSGNSQESVTEQDSKDSTYSLSSTLTLSKADYEKHKVYACEVTHQGLSSPVTKSFNRGEC
notes: Humanized, human IgG4 / kappa
B2: hz72C1-1.1 (antibody, human IgG4 S228P, kappa)
heavy: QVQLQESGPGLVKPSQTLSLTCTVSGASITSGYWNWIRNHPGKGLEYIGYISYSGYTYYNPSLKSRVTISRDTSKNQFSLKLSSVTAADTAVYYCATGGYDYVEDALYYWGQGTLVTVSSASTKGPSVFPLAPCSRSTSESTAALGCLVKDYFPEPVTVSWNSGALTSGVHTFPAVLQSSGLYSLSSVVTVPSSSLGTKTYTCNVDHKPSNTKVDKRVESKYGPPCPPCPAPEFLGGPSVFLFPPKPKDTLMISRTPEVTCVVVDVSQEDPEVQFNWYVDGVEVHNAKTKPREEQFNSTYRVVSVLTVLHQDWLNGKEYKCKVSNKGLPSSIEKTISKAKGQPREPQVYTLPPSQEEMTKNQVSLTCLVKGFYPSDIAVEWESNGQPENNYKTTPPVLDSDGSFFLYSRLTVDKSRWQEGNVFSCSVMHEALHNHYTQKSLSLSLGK
light: DIQMTQSPSSLSASVGDRVTITCRASSNVRYMYWYQQKPGKAPKLWIYLTSNLASGVPSRFSGSGSGTSYTLTISSLQPEDFATYYCQQFTTSPYTFGQGTKLEIKRTVAAPSVFIFPPSDEQLKSGTASVVCLLNNFYPREAKVQWKVDNALQSGNSQESVTEQDSKDSTYSLSSTLTLSKADYEKHKVYACEVTHQGLSSPVTKSFNRGEC
notes: Humanized, human IgG4 / kappa; also called humanized 72C1 antibody 1.1
B3: hz72C1-1.3 (antibody, human IgG4 S228P, kappa)
heavy: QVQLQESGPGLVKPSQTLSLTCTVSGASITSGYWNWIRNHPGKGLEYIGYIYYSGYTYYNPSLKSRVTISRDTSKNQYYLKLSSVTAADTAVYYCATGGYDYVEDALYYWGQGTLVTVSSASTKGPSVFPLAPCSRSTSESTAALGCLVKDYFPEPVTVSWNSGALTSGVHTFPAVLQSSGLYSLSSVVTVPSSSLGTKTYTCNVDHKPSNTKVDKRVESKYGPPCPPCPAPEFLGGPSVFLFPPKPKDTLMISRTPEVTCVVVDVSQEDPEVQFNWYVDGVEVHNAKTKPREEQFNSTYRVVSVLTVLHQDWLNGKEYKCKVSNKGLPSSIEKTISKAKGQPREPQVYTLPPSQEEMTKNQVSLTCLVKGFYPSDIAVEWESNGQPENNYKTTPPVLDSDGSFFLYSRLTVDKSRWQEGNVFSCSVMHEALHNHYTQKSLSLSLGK
light: DIQMTQSPSSLSASVGDRVTITCRASSNVRYMYWYQQKPGKAPKLWIYLTSNLASGVPSRFSGSGSGTSYTLTISSLQPEDFATYYCQQFTTSPYTFGQGTKLEIKRTVAAPSVFIFPPSDEQLKSGTASVVCLLNNFYPREAKVQWKVDNALQSGNSQESVTEQDSKDSTYSLSSTLTLSKADYEKHKVYACEVTHQGLSSPVTKSFNRGEC
notes: Humanized, human IgG4 / kappa
B4: hz72C1-2.1 (antibody, human IgG4 S228P, kappa)
heavy: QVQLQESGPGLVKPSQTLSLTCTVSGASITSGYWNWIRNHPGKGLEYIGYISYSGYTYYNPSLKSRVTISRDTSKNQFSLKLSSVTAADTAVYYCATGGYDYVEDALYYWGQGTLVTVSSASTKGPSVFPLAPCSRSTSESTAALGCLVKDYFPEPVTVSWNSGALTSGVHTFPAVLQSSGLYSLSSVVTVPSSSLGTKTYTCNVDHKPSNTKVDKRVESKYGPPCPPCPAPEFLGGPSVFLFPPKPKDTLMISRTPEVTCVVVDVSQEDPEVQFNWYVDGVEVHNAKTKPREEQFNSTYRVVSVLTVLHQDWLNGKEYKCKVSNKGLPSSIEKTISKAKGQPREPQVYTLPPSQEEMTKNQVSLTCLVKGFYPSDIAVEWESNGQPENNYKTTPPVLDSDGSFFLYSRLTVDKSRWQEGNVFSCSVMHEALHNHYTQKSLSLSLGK
light: DIQMTQSPSSLSASVGDRVTITCRASSNVRYMYWYQQKPGKAPKLWIYLTSNLASGVPSRFSGSGSGTSYTLTISSLQPEDFATYYCQQYTTSPYTFGQGTKLEIKRTVAAPSVFIFPPSDEQLKSGTASVVCLLNNFYPREAKVQWKVDNALQSGNSQESVTEQDSKDSTYSLSSTLTLSKADYEKHKVYACEVTHQGLSSPVTKSFNRGEC
notes: Humanized, human IgG4 / kappa
B5: hz84C4-2.5 (antibody, human IgG4 S228P, kappa, V domains shown)
VH: QVQLVQSGAEVKKPGASVKVSCKVSGYFFTSYWMNWVNQAPGQGLEWMGMIHPYDSETRLAQKFKGRVTMTVDKSTSTVYMELSSLRSEDTAVYYCASSTTAFAYWGQGTLVTVSS
VL: DIQMTQSPSSLSASVGDRVTITCRASQDIGNALNWLQQKPGKAPKRLIYATSSLDPGVPSRFSGSRSGTDYTLTISSLQPEDFATYYCLQYASSPYTFGQGTKVEIKR
notes: Humanized, human IgG4 / kappa
B6: chimeric 72C1 antibody (antibody, human IgG4 S228P, kappa)
heavy: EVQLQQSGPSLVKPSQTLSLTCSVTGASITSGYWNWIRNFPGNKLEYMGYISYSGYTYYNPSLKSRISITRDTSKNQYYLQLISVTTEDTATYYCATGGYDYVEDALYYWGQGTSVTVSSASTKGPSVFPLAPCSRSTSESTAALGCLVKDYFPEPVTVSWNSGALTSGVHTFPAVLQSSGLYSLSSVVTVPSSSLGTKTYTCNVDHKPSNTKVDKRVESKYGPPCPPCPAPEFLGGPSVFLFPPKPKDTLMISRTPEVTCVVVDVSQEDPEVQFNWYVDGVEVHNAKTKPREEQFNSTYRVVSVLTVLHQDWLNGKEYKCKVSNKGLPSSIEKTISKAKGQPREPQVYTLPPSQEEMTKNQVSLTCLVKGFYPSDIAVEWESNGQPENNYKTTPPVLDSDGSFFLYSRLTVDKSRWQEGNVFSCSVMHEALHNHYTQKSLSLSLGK
light: EILLTQSPAIMSATLGEKVTMSCRASSNVRYMYWYQLKSGASPKLWIYLTSNLASGVPARFSGSGSGTSYSLTISSVEAEDAATYFCQQFTTSPYTFGGGTKLEIKRTVAAPSVFIFPPSDEQLKSGTASVVCLLNNFYPREAKVQWKVDNALQSGNSQESVTEQDSKDSTYSLSSTLTLSKADYEKHKVYACEVTHQGLSSPVTKSFNRGEC
notes: Mouse variable regions on human IgG4 / kappa; also called xi72C1

Columns and labels:
[1] = biological target: T1, IL-36R naturally expressed on OVCAR8 cells and on normal human epidermal keratinocytes (NHK cells) (human, UniProt Q9HB29 20-575); experiment: cell-based or functional assay
T1 sequence (looked up): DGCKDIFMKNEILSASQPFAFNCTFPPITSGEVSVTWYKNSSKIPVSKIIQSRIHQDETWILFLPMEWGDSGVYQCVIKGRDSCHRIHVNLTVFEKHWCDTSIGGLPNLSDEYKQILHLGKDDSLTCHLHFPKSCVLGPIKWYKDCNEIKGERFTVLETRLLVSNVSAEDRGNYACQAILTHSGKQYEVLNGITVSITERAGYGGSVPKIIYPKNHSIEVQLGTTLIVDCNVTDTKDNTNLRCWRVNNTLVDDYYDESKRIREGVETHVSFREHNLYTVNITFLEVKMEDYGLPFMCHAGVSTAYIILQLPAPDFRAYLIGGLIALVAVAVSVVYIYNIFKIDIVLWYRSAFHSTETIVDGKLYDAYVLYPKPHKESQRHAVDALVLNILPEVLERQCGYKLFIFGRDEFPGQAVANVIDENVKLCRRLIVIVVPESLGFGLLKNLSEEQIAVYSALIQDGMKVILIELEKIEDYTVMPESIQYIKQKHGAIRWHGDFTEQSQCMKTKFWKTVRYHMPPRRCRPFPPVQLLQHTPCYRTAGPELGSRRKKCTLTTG

[2] = biological target: T1, IL-36R naturally expressed on OVCAR8 …; experiment: cell-based or functional assay; remark: listed apart in the source
[3] = biological target: T2, human IL-36R overexpressed on 293T-hIL36R-NFκB cells (human, UniProt Q9HB29 20-575); experiment: FACS on 293T-hIL36R-NFκB cells, ratio of MFI to background MFI
T2 construct: Entry includes the signal peptide; also called IL1RL2; IL-1Rrp2
T2 sequence: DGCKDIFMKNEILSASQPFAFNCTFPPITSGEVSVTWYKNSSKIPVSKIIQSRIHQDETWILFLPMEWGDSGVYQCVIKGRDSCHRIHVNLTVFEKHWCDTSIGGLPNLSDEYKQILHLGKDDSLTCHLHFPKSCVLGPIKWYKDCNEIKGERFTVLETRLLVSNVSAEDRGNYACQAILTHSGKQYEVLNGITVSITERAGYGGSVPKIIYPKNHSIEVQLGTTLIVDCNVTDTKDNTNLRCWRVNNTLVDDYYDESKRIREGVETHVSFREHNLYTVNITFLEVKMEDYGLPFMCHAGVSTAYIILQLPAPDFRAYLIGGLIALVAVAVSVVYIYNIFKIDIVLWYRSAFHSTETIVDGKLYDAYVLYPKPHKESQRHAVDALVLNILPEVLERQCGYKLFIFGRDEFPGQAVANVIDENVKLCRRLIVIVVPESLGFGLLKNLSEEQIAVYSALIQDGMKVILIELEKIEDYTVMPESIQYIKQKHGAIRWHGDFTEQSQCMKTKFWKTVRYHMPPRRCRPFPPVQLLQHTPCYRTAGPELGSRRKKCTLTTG
Procedure: After the cells was washed with PBS, the cells were resuspended with 100 μL of PBS and then the fluorescence signal was detected using a flow cytometer (BD, Accuri C6). […] The ratio was the ratio of mean fluorescence intensity (MFI) of the experimental group/the background MFI, and the resulting data were analyzed using GraphPad Prism.
(§1) Affinity, binding and blocking assays for humanized antibodies hz72C1-1.1, hz72C1-1.2, hz72C1-1.3, hz72C1-2.1, hz72C1-2.2 and hz72C1-2.3 as well as hz84C4-1.1, hz84C4-1.2, hz84C4-1.3, hz84C4-1.4, hz84C4-1.5, hz84C4-2.1, hz84C4-2.2, hz84C4-2.3, hz84C4-2.4 and hz84C4-2.5 were performed according to the methods of Example 4, Example 5. Example 6, Example 7 and Example 8.

[4] = biological target: T3, Human IL-1Rrp2/IL-1R6 protein, His Tag (ACROBiosystems, IL2-H52H6) (human, UniProt Q9HB29 20-335); experiment: BLI (ForteBio Octet), antibody on ProA sensor, 1:1 model
T3 construct: Bought protein; the soluble protein is likely only the extracellular part; also called hIL-36R; human IL36R antigen; not shown: His tag
T3 sequence: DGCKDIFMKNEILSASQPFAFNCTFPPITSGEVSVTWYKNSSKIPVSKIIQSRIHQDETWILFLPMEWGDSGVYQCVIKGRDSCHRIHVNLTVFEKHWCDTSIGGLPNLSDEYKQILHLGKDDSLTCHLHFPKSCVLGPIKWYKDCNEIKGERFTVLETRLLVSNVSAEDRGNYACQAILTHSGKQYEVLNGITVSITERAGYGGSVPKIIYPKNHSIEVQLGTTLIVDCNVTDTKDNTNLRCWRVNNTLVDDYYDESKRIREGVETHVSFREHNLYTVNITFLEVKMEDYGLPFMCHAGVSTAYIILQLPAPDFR
Procedure: (§2) The affinity of anti-IL-36R antibodies to CynoIL36R-ECD mFc and human IL-1Rrp2/IL-IR6 protein, His Tag (ACROBiosystems, IL2-H52H6) was measured by a ForteBio molecular interaction instrument. […] And then the biosensor was used to bind CynoIL36R-ECD mFc or human IL-1Rrp2/IL-1R6 protein, His Tag which was diluted by a gradient (the initial concentration was 200 nM, 2-fold gradient dilution), the response signals were detected in real time using a Fortebio molecular interaction instrument (SARTORIUS, octet red 96e), and association and dissociation curves were obtained. After the completion of dissociation in each cycle, the biosensor was regenerated for the next capture; the procedure was repeated until the affinity of the different anti-IL-36R antibodies for IL-36R was determined. The resulting data were analyzed by Fortebio Data Analysis 11.0 software in a 1:1 (Langmuir) binding model to determine kₐ (kₒₙ) and kd (koff) values, and the dissociation constant KD was calculated by KD=kd/kₐ. The detection method essentially followed the manufacturer's recommendations, and more information could be found at www.fortebio.com.
as §1

[5] = biological target: T1, IL-36R naturally expressed on OVCAR8 …; experiment: cell-based or functional assay; remark: listed apart in the source
[6] = biological target: T3, Human IL-1Rrp2/IL-1R6 protein, His Tag …; experiment: BLI (ForteBio Octet), antibody on ProA sensor, 1:1 model; remark: listed apart in the source
Procedure: as §2, §1

Row | Binder | IC50 (M); hIL36α; IL-8 production [1] | IC50 (M); hIL36αβγ; IL-8 production [1] | IC50 (M); hIL36β; IL-8 production [1] | IC50 (M); hIL36γ; IL-8 production [1] | Maximum inhibition rate %; hIL36α; IL-8 production [1] | Maximum inhibition rate %; hIL36αβγ; IL-8 production [1] | Maximum inhibition rate %; hIL36β; IL-8 production [1] | Maximum inhibition rate %; hIL36γ; IL-8 production [1] | IC50 (M); hIL36α; IL-8 production [2] | IC50 (M); hIL36αβγ; IL-8 production [2] | IC50 (M); hIL36β; IL-8 production [2] | IC50 (M); hIL36γ; IL-8 production [2] | Maximum inhibition rate %; hIL36α; IL-8 production [2] | Maximum inhibition rate %; hIL36αβγ; IL-8 production [2] | Maximum inhibition rate %; hIL36β; IL-8 production [2] | Maximum inhibition rate %; hIL36γ; IL-8 production [2] | EC50 [3] | Kd [4] | koff [4] | kon [4] | further results
1 | B1 | 1.19e-10 M | 3.29e-10 M | 4.33e-10 M | 1.14e-10 M | 96.1% | 89.6% | 84.7% | 85.7% | 6.21e-11 M | 8.82e-11 M | 2.61e-11 M | 1.38e-11 M | 98.9% | 97.9% | 98.2% | 98.2% | 11.9 nM | 0.0351 nM | 3.91e-06 s⁻¹ | 111000 M⁻¹ s⁻¹ | –
2 | B2 | 2.19e-10 M | 3.72e-10 M | 3.85e-10 M | 1.21e-10 M | 99% | 93.7% | 86.7% | 102% | 3.02e-11 M | 9.17e-11 M | 4.11e-11 M | 2.59e-11 M | 99% | 97.5% | 98.4% | 98.2% | 11.6 nM | 0.16 nM | 1.81e-05 s⁻¹ | 113000 M⁻¹ s⁻¹ | –
3 | B3 | 7.09e-11 M | 3.82e-10 M | 2.4e-10 M | 1.03e-10 M | 97.3% | 90.3% | 90.3% | 93.5% | 4.08e-11 M | 8.4e-11 M | 1.6e-11 M | 2.42e-11 M | 99% | 97.7% | 98.4% | 98.3% | 11.9 nM | 0.0743 nM | 8.8e-06 s⁻¹ | 119000 M⁻¹ s⁻¹ | –
4 | B4 | 1.13e-09 M | 1.78e-09 M | 1.41e-09 M | 2.41e-10 M | 93.5% | 84.6% | 82.1% | 94.1% | 1.43e-10 M | 3.97e-10 M | 9.9e-11 M | 8.27e-11 M | 98.6% | 96.4% | 98.3% | 97.8% | 19.3 nM | 0.0111 nM | 7.81e-07 s⁻¹ | 70400 M⁻¹ s⁻¹ | –
5 | B5 | – | – | – | – | – | – | – | – | – | – | – | – | – | – | – | – | – | – | – | – | IC50 (M); hIL36α; IL-8 production [5]: 6.45e-12 M; IC50 (M); hIL36αβγ; IL-8 production [5]: 4.01e-12 M; IC50 (M); hIL36β; IL-8 production [5]: 7.06e-12 M; IC50 (M); hIL36γ; IL-8 production [5]: 6.62e-12 M; Maximum inhibition rate %; hIL36α; IL-8 production [5]: 100%; Maximum inhibition rate %; hIL36αβγ; IL-8 production [5]: 99.2%; Maximum inhibition rate %; hIL36β; IL-8 production [5]: 99.4%; Maximum inhibition rate %; hIL36γ; IL-8 production [5]: 99.7%; Kd [6]: 1.44 nM; koff [6]: 0.000138 s⁻¹; kon [6]: 96400 M⁻¹ s⁻¹
6 | B6 | – | – | – | – | – | – | – | – | – | – | – | – | – | – | – | – | – | 0.736 nM | 4.38e-05 s⁻¹ | 59600 M⁻¹ s⁻¹ | –

Source: US20240270857A1 (CHIA TAI TIANQING PHARMACEUTICAL GROUP, published 2024)
